Data published in the nanobody polyreactivity screen of Harvey et al. (2022).

Experiment: yeast display, Sf9 membrane polyspecificity reagent, FACS + sequencing; frameworks hold sequencing errors
Outline: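 Nanobodies from a synthetic yeast display library (Saccharomyces cerevisiae BJ5465), induced 36–48 hours with galactose, were stained 1 hour at 4 °C with 10% biotinylated, detergent-solubilized Sf9 membrane reagent, enriched on streptavidin microbeads, then FACS-sorted. Anti-HA (expression) and streptavidin (reagent binding) fluorescence set low and high (top ~1%) gates. Polyreactivity labels come from the gate of origin. Genes were colony-PCR amplified, MiSeq 2 × 250 sequenced and filtered by CDR length.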

Sequence	polyreactivity (PSR sort gate)
QVQLVESGGGLVQAGGSLRLSCAASGRTFPYYAKGWYRQAPGKERELVAAISKRGGNTYYADSVKGRFTISRDNAKNTVYLQLNSLIPEVTAVYYCNALSSTEYDYWGQGTQVTVSS	high polyreactivity
QVQLVESGGGLVQAGGSLRLSCAASGSTFVGNVMGWYRQAPGKERELVATISRSGGRTYYADSVKGRFTISRDNAKNTVYLQMNSLKPVDTAVYYCAAGFVYTTASRWGGRTRYDYWGQGTQVTVSS	high polyreactivity
QVQLVESGGGLVHAGGSLRLSCATSGRTFKYNAMGWYRQAPGKEREFVAAISSRGGSTTYYADSVTGRFTISRDNAKNTVYLQMKSLKPEDTAVYYCADRTPPPASRSRVYYWGQCTQVTVSS	high polyreactivity
QVQLVESGGGLVQAGGSLRLSCAASGRTFYYYAMGWYRQAPGKERELVAAISWGGGRTYYADSVKGRFTISRDNAKNTVYLQMNSLKPEDTAVYYCNAVRTTPSGSLPLAYDYWGQGTQVTVSS	low polyreactivity
QVQLVESGGGLVQAGGSLRLSCAASGSTFAYNAMGWYRQAPGKERELVAAISSSGGSTSYADSVKARFTIARDNAKNTVNLQMNSLKPEDPAVYYCAADSYPAYLGFVGFDYWGQGTQVTVSS	low polyreactivity
QLQLVESGGGLVQAGGSLRLSCAPSGSIFLNYAMGWYRQAPGKERELVATIRRRGGSTYSADSVKGRFTISRDNAKNTVYLQMNSLKPDDTAVYYCNAEQLVSRARPYDYWGQGTLVTVSS	high polyreactivity
QVQLVESGGGLVQAGGSLRLSCAASGFTFQNNVMGWYRQAPGKERELVAAINSSGRTYYADSVKGRFTISRDNAKNTVYLQMNSLKPEDTAVFYCAASRRYRGVNRPGDYWGQGTQVTVSS	high polyreactivity
QDQHVESGGGLVQAVGSLRLSCAASGRIIVDYAMGWYRQAPGKERDLVATITNGGSTNYADSVKGRFTISRDNAKNTVYLQMNSLKPEDTAVYYCAVDYLLDYYSYIEDYWGQGTQVTVSS	low polyreactivity
QVQLVESGGGIVQAGGSLRLSCAASGLNFGLYAMGWDRQAPGNERELVAAITWSGVSTSYADSVKGRFTISRDNAKNTVYLQMNSLKPEDTAVYYCNKDPGTLYGDMDSWGQGTQVTVSS	low polyreactivity
QVQLVESGGGLVQAGGSLRLICAASGSIFYEYAMGWYRQAPGKEREFVASISWSGGITSYADSVKGRFTISRDNAKNTVYLQMNSLKPEDTAVYYCAADFSWYLYDYDYWGQGTQVTVSS	low polyreactivity
QVQLVESGGGLVQAGGSLRLSCAASGRIFSWNTMGWYRQAPGKERELVAAISSSDGSTYYADSVKGRFTISRDNAKNTVYLQMNSVKPEDTAVYYCNKVVSRWNQRWRYSEGNYWGQGTQVTVSS	high polyreactivity
QVQLVESGGGLVQAGGSLRLSCSASGSTFVTNVIGWYRQAPGKERELVAAISYSGGNTYYEDSVKGRFTISRDNAKNTVYLQMNSLKPEDTAVYYCAASYKPFKKMGYWGQGTQVTVSS	high polyreactivity
QVHLVESGGGLFQAGGSLPLSCAASGYIFVRYAKGWYRQAPGKEREFVAAISSSGGSTRYADSVKARFTLSRDNAKNTVYLQMNSLKPEDTAVYYGAATRVARHGSPMYYWGQGTQVTVSS	high polyreactivity
QVQLVESGGGLVQAGGSLRLSCAASGFTFNRYDMGWYRQAPGKERELVAAITGGSGSTYYADSVKGRFTISRDNAKNTVYLQMHSLKPEDTAVYDCAARRYRLSTPEFNYWGQGTQVTVSS	high polyreactivity
QVQLVESGGGLVQAGGSLRLSCAASGNIFGFYTMGWNRQAPGKERELVAAIRSRGGSTNYADSVKGRFTISRDTAKNTVYLQMNSLKPEDTAVYYCNKDGTWLARAVTYADFDYWGQGTQVTVSS	low polyreactivity
QVQLVESAGGLVQAGGSLRLSSAASGLIFPLYEMGWYRQAPGKERELVAAINWRGGSTYYADSVKGRFTISRDNAKNTVYLQMNSLKPEDTAVYYCAAGYLHRDSYIYDYWGQGTQVTVSS	low polyreactivity
QVQLVESGGGLVQAGGSLRLSCAASGSIFGYNTMGWYRKAPGKERELVAAISYRGGSTSADSVKGRFSISRDNAKNTVYLQMNSRKPEDTAVYSCATRSIVGYRYSGYDYWGQATQVTVSS	high polyreactivity
QVQLVESGGGLVQAGGSLRLSCAASGLIFPYYALGWYRQAPGKERELVAAISWRGGNTYYADSVKGRFTISRDNAKNTVYLQMNSLKPEDTAVYYCNTVQYRNEMGYWGQGTQVTVSS	high polyreactivity
QVQLVESGGCLVQAGGSLRLSCAASGLTFAENAMGWYREAPGKERELVAAISASGGSTYYADSVKGRFTSSRDNAKNTVYLQMNSLKPEDTAVYYCATRVAFLWPRRDYDYWGQGTQVNVSS	low polyreactivity
QVQLVESGGGLVQAGGSLRLSCAASGRISSVYAMGLYRQAPGKERELVAGITWSDARTYYADSVKGRFTISRDNAKNTVYLQMNSLKPEDTAVYYCAADYYYYERDYWGQGTQVTVSS	low polyreactivity
QVQLVESGGGLVQAGGSLRLSCAASGLTLSGYAMGWYRQAPGKERELVAAISSTGGSTYYADSVKGRFTISRDNAKNTVYLQMNSLKPEATAVYYCAKGYSPTRVRLRYPRYDTYNHWGQVTQVTVSS	high polyreactivity
QVQLVESGGGLVQAGGSLRLSCAASGFTFGLNVMGWYRQAPGKERELVAAISQSGGSTYYADSVKGRFTISRDNAKNTVYLQMNSLKPEDTAVYYCAVDYYPNPSYTVYDDEYWGQGTQVTVSS	low polyreactivity

Sequence	polyreactivity (PSR sort gate)
QVQLVESGGGLVQPGRSLRLSCAASGFTFYIYAMGWYRQAPGKERELVAAISGRGSSTYYADSVKGRFTISRDNAKNSVYLQMNSQTPEDTAVYYCAAGKSKYGVRGDYWGQGTQVTVSS	high polyreactivity
QVQLVESGGGLVQAGGSLRLSCAASGRTFRINAMGWYRQAPGKERELVAAITSGGRTNYADSVKGRFTISRDNAKNTVYLQMNSLKPEDTAVYYCAADTTHWYYLGYGYWGQGTQVTVSS	low polyreactivity
QVQLVESGAGLVQAGRSLRLSCAASGRTLSRFAMGGYRQAPGKERELVAGITSGGDTRTYYADSVKGRFTISRDYAKNTVYLQMNSLKPEDPAVYYCWGQVTQVTVSS	low polyreactivity
QVQLVESGGGLVQAGGSLRLSCAASGRIFKYNAMGWYRQAPGKERELLAAITRGGSTNYADSVKGRFTISRDNAKNTVYLQMNSLKPEDTAVYYCAALRSRYGRDMDYWGQGTQVTVSS	high polyreactivity
QVQLVESGGGLVQAGGSLRLSCAASGRTFYIYAMGWYRQAPGNERELVADISSSDDSTYYADSEKGRFTISRDNAKNTVYLQMNSLKPEDTAVYYCAAELYYFFDEHYYWGQGTQVTVSS	low polyreactivity
QVQLVESGGGLVQAGGSLRLSCAASRSIFSQYSRGCYRQAPGKERELVATITWRGGSNTNYADSVKGRFTISRDNAKNTVYLQMNSLKPEDTAVYYCNAAFPYHYRFDYWGQGTQVTVSS	low polyreactivity
QVQLVESGGGLVQAGGSLRLSCAASGNTFREYGMGWYRQAPGKERELVAAISSTGSTNYADSVKGRFTISRDNAKNTVYLQMNSLKPEDTAVYYCNRDRVWGSGVRTRGDYWGQVTQVTVSS	low polyreactivity
QVQLVESGGGLVQAGGSLRLSCAASGSIFYWYALGWYRQAPGKERELVADITTSDGRTYYADSVKGRFTISRDNAKNTVNLQMNSLKPEDTAVYYCAADPFSGYGFQYYRGLYYWGQGTQVSVSS	low polyreactivity
QVQLVESGGGLVQAGGSLRLSCAASGRIFSAYAMGWYRQAPGKERELVAAITSVGSTKYADSVKGLFTISRDNAKNTVYLQMNSLKPEDTAVYYCAAEYTRSFYIYYRFGYWGQGTQVTVSS	high polyreactivity
QVQLVESGGGLVQAGGSLRLSCAASGSIFYRNAMGWYRQAPGKERELVAAISWSGSRTYYADSVKGRFTISRDNAKNTVYLQMNSLKPEDTAVYYCNRQYNQWIHYYYRMDYWGQGTQVTVSS	high polyreactivity
QEQLVESGGGLDQAGGSLRLSCAASGYTFVNYAMGWYRQAPGKERELVAAITSRGSSTYYADSVKGRFTISRDNAKNTVYLQMNSLKPEDTAVYYCAAYSSSLQGGYWGQGTQVTVSS	high polyreactivity
QVQLVESGGGLVQAGRSLRLSCAASGSIFYKYARGWYRQAPGKERELVAAISRSRGSTYYADSVKGRFTISRDNAKNTVYLQMNSLKPEDTAVYYCNAYYRYSFSELDKYGYWGQGTQVTVSS	high polyreactivity
QVQLVESGGGLVQAGGSLRLSCAASGITFTVYAMGWYRQAPGKERELVAAITSTGSTNYADSVKGRFTISRDNAKNTVYLQMNSLKPEDTAVYYCAARRSHQYRGPHFNYWGQGTQVTVSS	low polyreactivity
QVQLVETGGGLVQAGGSLSLSCAASGRTSKINAMGWYRQAPGKERELVASISRTGGTTYYADSVKGRFTISRDNAKNTVYLQMNSVKPEDTAVYYCAVSDFGLRDSLTIYDEYDYWGQGTQVTVSS	high polyreactivity
QVQHVESVGGLVQAGGSLRVSCAASGTIFTFYTMGRYRPAPGKERELVAAISQTGGRTYYGDSVKGRFTISRDNAKNTVYLQMNSLKPEDTAVYYCAASVGRYAGNYWGQGTQVTVSS	high polyreactivity
QVQLVESGGGLVQAGGSLRLSCAASGFTFVSYAMGWYRQAPGKERELVAAISKRGGSTSYADSVKGRFTISRDNAKNTVYFQMNSLKPEDTAVYYCYNRSYAWSPHVDYWGQGTQVTVSS	high polyreactivity
QVQLVESGGGLVQAGGSLRLSCAASGGTFDWNPMGWYRQAPGKERELVASITSGGRTNYADSVKGRFTISRDNAKNTVYLQMNSLKPEDTAVSYCAKYRRSAYPWQTWVGQKFDYWGQGTHVTVSS	low polyreactivity
QVQLVESGGRLVQSGGSLRLSCAASGRIFLYYTMGWYRQAPGKERELVATIRSGDSTNYADSVKGRFTISRDNAKNTVYLQMNSLKPEVTAVYYCAADWDIFQQGANGAPYDYWGQGTQVTVSS	low polyreactivity
QVQLVESGGGLVQAGGSLRLSCAASGITLALYAMGWYIQAPGKERELVAAISWTGGSTYYADSVKGRFTISRDNAKNTVYLQMNSLKPEDPAVYYCNAVPGPPHSYLGGDYWGQGTQVTVSS	high polyreactivity
QVQLVESGGGLVQAGGSLRLSCAASGFTFRGYAMGWYRQAPGKERELVAAIRRGVGSTYYADSVKGRFTISRDNAKNTVYLQMTSLKPEDTAVYYCNKDNAVDRLPWFQVTYDYWGQGTQVTVSS	low polyreactivity
QVQLVESGGGLVQAGGSLRLSCAASGTIFVLYAMGWYRQAPGKERELVAAITTGGGTNYADSVKGRFTISRDNEKNTVYLQMNRLKPEDTAVYYCAADTGWYDDWTHDYWGQGTQVTVSS	low polyreactivity
